Results on two substances are retold here after article PMC10145791.

Broadly, the Kd is the equilibrium constant for the complex coming apart.

Assay [1] has as its target VEGF-A165 (Homo sapiens) (UniProt P15692). The conditions noted are these: cited from earlier work.
The target in assay [2] is recombinant human neuropilin-1 (human) (UniProt O14786). Kind of assay: SPR; SPRi, stage 1: mixtures of NRP-1 (1 ng/mL) with VEGF-A (0.01, 0.10, 1.00, 10.0 ng/mL) dropped onto the immobilised mouse monoclonal anti-NRP-1 antibody (200 ng/mL on cysteamine/gold); read-out is the free NRP-1 that the antibody captures (recovery %); pH 7.4, 10 min. A general note: Surface plasmon resonance follows binding to a sensor surface in real time, without labels.

As to “neuropilin-1 soluble (from UniProt O14786)”, the Kd in assay [1] is 7.5 nM.
In the case of “vascular endothelial growth factor VEGFA (from UniProt P15692 1-395) (ligand)”, in assay [2], the recovery of free NRP-1 (1 ng/mL added) on the antibody with 0.01 ng/mL VEGF-A was determined as 98%, the recovery of free NRP-1 (1 ng/mL added) on the antibody with 0.10 ng/mL VEGF-A was 85%, the recovery of free NRP-1 (1 ng/mL added) on the antibody with 1.00 ng/mL VEGF-A came out at 36% and the recovery of free NRP-1 (1 ng/mL added) on the antibody with 10.0 ng/mL VEGF-A was under 1%.
